Measured values from US20110189692A1.
Where “and” joins values, the source holds several entries; their conditions need not be identical. Equal values may be shown once.

What was measured:
[1] = biological target: tau of normal human brain homogenate (native) (human) (UniProt P10636)
[2] = biological target: PrP^Sc, pathogenic conformer of the human prion protein, from vCJD brain homogenate (human) (UniProt P04156)
[3] = biological target: PrP^Sc, pathogenic conformer of the human prion protein, from vCJD brain homogenate (human) (UniProt P04156); remark: listed apart in the source
[4] = biological target: PrP^C, non-pathogenic human prion protein, from normal brain homogenate (human) (UniProt P04156)
[5] = biological target: aggregated Aβ42 from Alzheimer's disease brain homogenate (human) (UniProt P05067)

In the case of “PSR1 (peptoid reagent XIIb attached to magnetic beads) (designed binder)”, the tau ELISA signal after pulldown, mean of 3 [1] is reported as 0.11 and 0.12, the tau ELISA signal after pulldown, replicate [1] is reported as 0.11 and 0.12 and 0.13 and the pulldown efficiency [2] is reported as 100%. For the same substance, the ELISA signal after pulldown (RLU, ave) [3] was 53 RLU, the ELISA signal after pulldown (RLU, ave) [4] was 9.9 RLU and the recovery [5] was 100%.
